Source: the supplement of paper PMC7125110
± gives the standard error. For some assays here: This sample holds only a part of the variants without activity.

B1: glmS ribozyme (parent)
chain: AUAAAAGCGCCAGAACUACAGAAAUGUAGUUGACGAGGAGGAGGUUUAUCGAAUUUUCGGCGGAUGCCUCCAAA

Tests used:
Conditions in all cases: with glucosamine-6-phosphate
glucosamine-6-phosphate [1] = variants of: B1; assay: kcat; higher = faster cleavage; RNA array
In short: (§1)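 Weighted Michaelis–Menten fits across concentrations supplied kcat and KM, based on kobs from one- or two-exponential decay fits to normalised per-tile medians. The data came from barcoded ribozyme variants transcribed in situ by E. coli RNA polymerase on sequenced MiSeq chips and tracked at 37 °C by a hybridised Cy3 probe. Glucosamine-6-phosphate (40 μM to 10 mM) in HEPES/KCl/Mg(OAc)2 buffer was flowed in.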

glucosamine-6-phosphate [2] = variants of: B1; assay: self-cleavage kobs at 640 uM GlcN6P; higher = faster cleavage; RNA array
In short: as §1

glucosamine-6-phosphate [3] = variants of: B1; assay: self-cleavage kobs at 2500 uM GlcN6P; higher = faster cleavage; RNA array
In short: as §1

glucosamine-6-phosphate [4] = variants of: B1; assay: self-cleavage kobs at 10000 uM GlcN6P; higher = faster cleavage; RNA array
In short: as §1

glucosamine-6-phosphate [5] = variants of: B1; assay: KM; higher = weaker cofactor use; RNA array
In short: as §1

glucosamine-6-phosphate [6] = variants of: B1; assay: self-cleavage kobs at 40 uM GlcN6P; higher = faster cleavage; RNA array
In short: as §1

glucosamine-6-phosphate [7] = variants of: B1; assay: self-cleavage kobs at 160 uM GlcN6P; higher = faster cleavage; RNA array
In short: as §1

Variant	kcat (glucosamine-6-phosphate [1])	self-cleavage kobs at 640 uM GlcN6P (glucosamine-6-phosphate [2])	self-cleavage kobs at 2500 uM GlcN6P (glucosamine-6-phosphate [3])	self-cleavage kobs at 10000 uM GlcN6P (glucosamine-6-phosphate [4])	KM (glucosamine-6-phosphate [5])	self-cleavage kobs at 40 uM GlcN6P (glucosamine-6-phosphate [6])	self-cleavage kobs at 160 uM GlcN6P (glucosamine-6-phosphate [7])
G44U A64G	0.000112 ± 2.4e-05 s⁻¹	9.74e-05 ± 4.6e-05 s⁻¹	5.94e-05 ± 1.4e-05 s⁻¹	9.64e-05 ± 1.3e-05 s⁻¹	–	–	–
A6C U45A	0.000229 ± 1.7e-05 s⁻¹	3.95e-05 ± 1.9e-05 s⁻¹	8.34e-05 ± 2.8e-05 s⁻¹	0.000168 ± 2.1e-05 s⁻¹	3720 ± 750 µM	< 1e-05 s⁻¹	–
A12U C58A	0.00172 ± 0.00051 s⁻¹	5.11e-05 ± 1.2e-05 s⁻¹	0.000149 ± 2.6e-05 s⁻¹	0.00051 ± 6.1e-05 s⁻¹	–	–	–
G13U C16U	0.00286 ± 0.00057 s⁻¹	0.0004 ± 6.9e-05 s⁻¹	0.00139 ± 0.00026 s⁻¹	0.0021 ± 0.0003 s⁻¹	3430 ± 1000 µM	4.83e-05 ± 1.1e-05 s⁻¹	0.000115 ± 2.9e-05 s⁻¹
U54G C68U C70A	6.79e-05 ± 7.7e-06 s⁻¹	–	–	6.28e-05 ± 1.4e-05 s⁻¹	–	–	–
G37A U46A	0.000136 ± 4.3e-06 s⁻¹	2.37e-05 ± 7.5e-06 s⁻¹	6.45e-05 ± 7.8e-06 s⁻¹	0.000105 ± 1.1e-05 s⁻¹	2840 ± 210 µM	< 1e-05 s⁻¹	–
C34G G38U	< 1e-05 s⁻¹	–	–	–	–	–	< 1e-05 s⁻¹
U30G C67A C70U	0.000403 ± 2.7e-05 s⁻¹	0.00027 ± 6.3e-05 s⁻¹	0.000399 ± 0.00014 s⁻¹	0.000369 ± 8.4e-05 s⁻¹	353 ± 78 µM	–	–
A42C G66A	0.000322 ± 2.8e-05 s⁻¹	0.000125 ± 1.5e-05 s⁻¹	0.000208 ± 2.9e-05 s⁻¹	0.000305 ± 4.2e-05 s⁻¹	1090 ± 210 µM	–	–
C10U	2.6e-05 ± 1.4e-06 s⁻¹	1.32e-05 ± 2e-06 s⁻¹	2.39e-05 ± 1.5e-06 s⁻¹	2.41e-05 ± 1e-06 s⁻¹	499 ± 190 µM	< 1e-05 s⁻¹	–
A48U U55C	0.000437 ± 6.5e-05 s⁻¹	0.000116 ± 2.5e-05 s⁻¹	0.000214 ± 3.6e-05 s⁻¹	0.000378 ± 6.8e-05 s⁻¹	2190 ± 650 µM	–	–
G51A U54C	< 1e-05 s⁻¹	–	–	–	–	–	–
G41C U55A	8.46e-05 ± 5e-06 s⁻¹	–	5.87e-05 ± 2e-05 s⁻¹	7.36e-05 ± 2e-05 s⁻¹	1280 ± 280 µM	< 1e-05 s⁻¹	–
A14U U47G	0.00156 ± 0.00026 s⁻¹	0.000416 ± 4.8e-05 s⁻¹	0.000947 ± 0.00011 s⁻¹	0.00132 ± 0.00013 s⁻¹	1750 ± 450 µM	5.6e-05 ± 8.8e-06 s⁻¹	0.000115 ± 1.4e-05 s⁻¹
U31G A48C	0.000112 ± 1.1e-05 s⁻¹	–	5.79e-05 ± 1.5e-05 s⁻¹	8.83e-05 ± 1.7e-05 s⁻¹	2550 ± 670 µM	–	–
A48U U54G C70U	0.000549 ± 9.5e-05 s⁻¹	0.000139 ± 2.9e-05 s⁻¹	0.000369 ± 9.6e-05 s⁻¹	0.000445 ± 0.00012 s⁻¹	1760 ± 550 µM	–	–

Variant	kcat (glucosamine-6-phosphate [1])	self-cleavage kobs at 640 uM GlcN6P (glucosamine-6-phosphate [2])	self-cleavage kobs at 2500 uM GlcN6P (glucosamine-6-phosphate [3])	self-cleavage kobs at 10000 uM GlcN6P (glucosamine-6-phosphate [4])	KM (glucosamine-6-phosphate [5])	self-cleavage kobs at 40 uM GlcN6P (glucosamine-6-phosphate [6])	self-cleavage kobs at 160 uM GlcN6P (glucosamine-6-phosphate [7])
U65C C67U	0.000111 ± 9.1e-06 s⁻¹	–	7.62e-05 ± 2.6e-05 s⁻¹	9.15e-05 ± 1e-05 s⁻¹	2040 ± 650 µM	–	–
C16U G63U	1.26e-05 ± 2.3e-06 s⁻¹	–	–	–	–	–	–
A6G U55G	0.000588 ± 4.1e-05 s⁻¹	0.000133 ± 3.4e-05 s⁻¹	0.000299 ± 5.2e-05 s⁻¹	0.000473 ± 7.8e-05 s⁻¹	2390 ± 350 µM	–	–
G32U G41A	0.000221 ± 1.2e-05 s⁻¹	2.98e-05 ± 1.1e-05 s⁻¹	7.3e-05 ± 1.5e-05 s⁻¹	0.00015 ± 1.4e-05 s⁻¹	4720 ± 590 µM	–	–
A14G G59U	0.000386 ± 9.6e-05 s⁻¹	1.71e-05 ± 8e-06 s⁻¹	9.37e-05 ± 1.5e-05 s⁻¹	0.000196 ± 2.2e-05 s⁻¹	9330 ± 3800 µM	–	–
A33U C50U	< 1e-05 s⁻¹	–	< 1e-05 s⁻¹	< 1e-05 s⁻¹	–	< 1e-05 s⁻¹	< 1e-05 s⁻¹
G44U U46C	1.46e-05 ± 1.4e-06 s⁻¹	–	–	–	5110 ± 1200 µM	–	–
G29U G38C C58G C68A C71A	5.03e-05 ± 2.1e-05 s⁻¹	–	8.03e-05 ± 4e-05 s⁻¹	–	–	–	–
C11U C71A	0.000412 ± 2.6e-05 s⁻¹	0.000106 ± 1.5e-05 s⁻¹	0.00024 ± 4.4e-05 s⁻¹	0.000354 ± 6.1e-05 s⁻¹	1790 ± 200 µM	–	4.15e-05 ± 1.7e-05 s⁻¹
A48G G59A	5.08e-05 ± 1.8e-05 s⁻¹	–	6.29e-05 ± 1.8e-05 s⁻¹	–	–	–	–
A39C U46G	0.000897 ± 0.00012 s⁻¹	0.000224 ± 2e-05 s⁻¹	0.00042 ± 6.2e-05 s⁻¹	0.000829 ± 0.0001 s⁻¹	2000 ± 420 µM	–	6.87e-05 ± 9.7e-06 s⁻¹
A12C C67A	0.00471 ± 0.0013 s⁻¹	0.00125 ± 0.0002 s⁻¹	0.0034 ± 0.00084 s⁻¹	0.00467 ± 0.00054 s⁻¹	1180 ± 470 µM	0.000204 ± 1.9e-05 s⁻¹	0.000456 ± 7.2e-05 s⁻¹
G32U C68U	0.000114 ± 5.5e-06 s⁻¹	2.88e-05 ± 8.9e-06 s⁻¹	7.28e-05 ± 6.1e-06 s⁻¹	9.76e-05 ± 6.8e-06 s⁻¹	1540 ± 250 µM	< 1e-05 s⁻¹	–
A6C A12C U57G	1.28e-05 ± 2.4e-06 s⁻¹	–	–	< 1e-05 s⁻¹	–	–	–
U30G U45C	0.000451 ± 9.8e-05 s⁻¹	0.000201 ± 8.3e-05 s⁻¹	0.00024 ± 7.8e-05 s⁻¹	0.000435 ± 9.4e-05 s⁻¹	–	–	–
A12U G40A	0.0133 ± 0.0024 s⁻¹	0.0042 ± 0.001 s⁻¹	0.00929 ± 0.0029 s⁻¹	0.013 ± 0.0034 s⁻¹	1110 ± 310 µM	0.000618 ± 0.00017 s⁻¹	0.00156 ± 0.00048 s⁻¹
